Source: patent US11994512B2, “Single-cell genomic methods to generate ex vivo cell systems that recapitulate in vivo biology with improved fidelity” (Massachusetts Institute of Technology, priority 2018, dated 2024)

System: intracellular proteome of ENR+CD and ENR organoids
Assay: LC-MS/MS TMT proteomics of ENR+CD versus ENR organoids
Type: cell-based, C57BL/6 mice
Conditions: for Average logFC: ENR+CD versus ENR organoids, sample pairs in aggregate (n=4, 2 technical replicates from two biological donors); for M1-1 Log2 Median Normalized / M1-2 Log2 Median Normalized / M2-1 Log2 Median Normalized / M2-2 Log2 Median Normalized: protein abundance ratio ENR+CD versus ENR organoids, LC-MS/MS TMT proteomics; for M1-1 Log2 Median Normalized: sample pair M1-1; for M1-2 Log2 Median Normalized: sample pair M1-2; for M2-1 Log2 Median Normalized: sample pair M2-1; for M2-2 Log2 Median Normalized: sample pair M2-2; for change: up = enriched in ENR+CD, down = enriched in ENR, FDR<0.05 and log fold change cut-off

B1: Q9D8W7 (protein, UniProt Q9D8W7 1-154, looked up)
chain: MASVSTHGNQEKSPHLPPLSKQSLLFCPKSKLHIHRGEIAKIIRECQEESFWKRALPFSLISMLVTQGLVHQGYLAANPRFGSLPKVALAGLLGFGLGKASYIRVCQSKFHSFEDQLRGAGFGPEHNRHCLLTCEDCKTRRGLSEKAGSQPSAS
modifications: full-length
Average logFC: −1.397 | M1-1 Log2 Median Normalized: −0.573 | M1-2 Log2 Median Normalized: −1.182 | M2-1 Log2 Median Normalized: −1.9045 | M2-2 Log2 Median Normalized: −1.927 | change: down

B2: Q9D6F4 (protein, UniProt Q9D6F4 1-552, looked up)
chain: MVSVQKVPAIALCSGVSLALLHFLCLAACLNESPGQNSKDEKLCPENFTRILDSLLDGYDNRLRPGFGGPVTEVKTDIYVTSFGPVSDVEMEYTMDVFFRQTWIDKRLKYDGPIEILRLNNMMVTKVWTPDTFFRNGKKSVSHNMTAPNKLFRIMRNGTILYTMRLTISAECPMRLVDFPMDGHACPLKFGSYAYPKSEMIYTWTKGPEKSVEVPKESSSLVQYDLIGQTVSSETIKSITGEYIVMTVYFHLRRKMGYFMIQTYIPCIMTVILSQVSFWINKESVPARTVFGITTVLTMTTLSISARHSLPKVSYATAMDWFIAVCFAFVFSALIEFAAVNYFTNIQMQKAKKKISKPPPEVPAAPVLKEKHTETSLQNTHANLNMRKRTNALVHSESDVKSRTEVGNHSSKTSAVQESSEATPKAHLASSPNPFSRANAAETMSAAARGLSSAASPSPHGTLRPASLGSASTRPAFGSRLGRIKTTVNTTGAAGNVSATPPPPAPPPSGSGTSKIDKYARILFPVTFGAFNMVYWVVYLSKDTMEKSESLM
modifications: full-length
Average logFC: 1.263 | M1-1 Log2 Median Normalized: 0.695 | M1-2 Log2 Median Normalized: 0.98 | M2-1 Log2 Median Normalized: 1.4175 | M2-2 Log2 Median Normalized: 1.959 | change: up

B3: Q9D1C1 (protein, UniProt Q9D1C1 1-179, looked up)
chain: MASQNRDPAAASVAAVRKGAEPCGGAARGPVGKRLQQELMILMTSGDKGISAFPESDNLFKWVGTIHGAAGTVYEDLRYKLSLEFPSGYPYNAPTVKFLTPCYHPNVDTQGNICLDILKDKWSALYDVRTILLSIQSLLGEPNIDSPLNTHAAELWKNPTAFKKYLQETYSKQVSSQDP
modifications: full-length
Average logFC: −1.255 | M1-1 Log2 Median Normalized: −1.316 | M1-2 Log2 Median Normalized: −0.925 | M2-1 Log2 Median Normalized: −1.1505 | M2-2 Log2 Median Normalized: −1.63 | change: down

B4: Q9D3P9 (protein, UniProt Q9D3P9 1-169, looked up)
chain: MRGMNLQLVCLTLLAFSSWSLCSDSEEDVRALEADLLTNMHTSKISKASPPSWKMTLLNVCSLINNVNSPAEEAGDMHDDDLVGKRKLPLVLDGFSLEAMLTIFQLQKICRSRAFQHWEIIQEDILDNVNDKNEKEEVIKRKIPYILKRQLYENKPRRPYILKRGSYYY
modifications: full-length
Average logFC: 1.285 | M1-1 Log2 Median Normalized: 1.731 | M1-2 Log2 Median Normalized: 0.439 | M2-1 Log2 Median Normalized: 0.8595 | M2-2 Log2 Median Normalized: 2.111 | change: up

B5: Q9DA97 (protein, UniProt Q9DA97 1-430, looked up)
chain: MAEKPTNTSVPIPGSEDPQKENIRCLSTLGHFGFECLPTQLVNKSIQKGFSFNILCVGETGIGKTTLINTLFNTNLKETKSSHFYSKVGLTVKTYELLERNIPLRLTVVKTVGYGDQINKEASYQPVVDYLDAQFEAYLQEELKIKRSLADYHDSRIHVCLYFITPTGHSLKSLDLLTMKSIDRRVNIIPLIAKADSLSKNDLQRFKNNIMSELNSNGIQIYQFQVDDEASAQVNSSGLLPFAVVGSMEEVKVGKRMVRGRHYPWGVLQEVENENHCDFVKLRDLLLSTNMEDLKDQTHTQHYECYRSNRLQKLGFSDTGPDNRPVSFQEMYEAKRREFHNQCQKEEEELKQTFMQRVKEKELTFKDAEKELQDKFEHLKRIQQEEILKLEEERRKLEEQIIDFYKMKAASESAQAQVCTNIKKDKDRKK
modifications: full-length
Average logFC: −1.147 | M1-1 Log2 Median Normalized: −0.99 | M1-2 Log2 Median Normalized: −1.148 | M2-1 Log2 Median Normalized: −0.7465 | M2-2 Log2 Median Normalized: −2.635 | change: down

B6: Q9D816 (protein, UniProt Q9D816 1-490, looked up)
chain: MDPVLVLVLTLSCLLLLSLWRQNSGRGKLPPGPTPFPIIGNILQIDIKNISKSFNYFSKVYGPVFTLYFGSKPTVVVHGYEAVKEALDDLGEEFSGRGSFQIFERINNDLGVIFSNGTKWKELRRFSIMTLRSFGMGKRSIEDRIQEEASCLVEELRKANGSLCDPTFILSCAPSNVICSVIFHNRFDYKDEKFLNLMERLNENFKILNSPWMQVYNALPTLINYLPGSHNKVIKNFTEIKSYILGRVKEHQETLDMDNPRDFIDCFLIKMEQEKHNPHSEFTIESLMATVTDIFVAGTETTNITLRYGLLLLLKHTEVTAKVQAEIDHVIGRHRSPCMQDRTRMPYTDAMVHEIQRYIDLIPNNVPHAATCNVRFRSYFIPKGTELVTSLTSVLHDDKEFPNPEVFDPGHFLDENGNFKKSDYFMPFSIGKRMCVGEALARTELFLILTTILQNFNLKSLVDTKDIDTTPVANTFGRVPPSYQLYFIPR
modifications: full-length
Average logFC: 1.132 | M1-1 Log2 Median Normalized: 0.664 | M1-2 Log2 Median Normalized: 1.318 | M2-1 Log2 Median Normalized: 0.5735 | M2-2 Log2 Median Normalized: 1.971 | change: up

B7: Q9D6X6 (protein, UniProt Q9D6X6 1-382, looked up)
chain: MAGIPGLFILLVLLCVFMQVSPYTVPWKPTWPAYRLPVVLPQSTLNLAKADFDAKAKLEVSSSCGPQCHKGTPLPTYEEAKQYLSYETLYANGSRTETRVGIYILSNGEGRARGRDSEATGRSRRKRQIYGYDGRFSIFGKDFLLNYPFSTSVKLSTGCTGTLVAEKHVLTAAHCIHDGKTYVKGTQKLRVGFLKPKYKDGAGGDNSSSSAMPDKMKFQWIRVKRTHVPKGWIKGNANDIGMDYDYALLELKKPHKRQFMKIGVSPPAKQLPGGRIHFSGYDNDRPGNLVYRFCDVKDETYDLLYQQCDAQPGASGSGVYVRMWKRPQQKWERKIIGIFSGHQWVDMNGSPQDFNVAVRITPLKYAQICYWIKGNYLDCREG
modifications: full-length
Average logFC: 1.179 | M1-1 Log2 Median Normalized: 1.521 | M1-2 Log2 Median Normalized: 1.393 | M2-1 Log2 Median Normalized: 0.7475 | M2-2 Log2 Median Normalized: 1.055 | change: up

B8: Q9CZT6 (protein, UniProt Q9CZT6 1-276, looked up)
chain: MADDLGDEWWENQPAAASSPEQSGGEEGGDTEMTQQDTAPVPEKTQQPTECFLTQTKEPKAEDSRKTRKWKKKKISDILAKSEPKPGTPEDLQKLIRDHYSSSRSVIELEELHLPDSCFLKANDLTHSLSSYLKEICPKWVKLRKTHNEKKSVLMLILCSSAVRALELIRSLTAFKGDAKVMKLFAKHIKVQEQVKLLEKRVIHLGVGTPGRIKELVKQDGLHLNPLKFLVFDWNWRDQKLRRMMDIPEIRKEVFELLDMGVFSLCKSDSLKLGLF
modifications: full-length
Average logFC: −1.131 | M1-1 Log2 Median Normalized: −1.275 | M1-2 Log2 Median Normalized: −0.965 | M2-1 Log2 Median Normalized: −0.8705 | M2-2 Log2 Median Normalized: −1.413 | change: down

B9: Q9D009 (protein, UniProt Q9D009 1-231, looked up)
chain: MSLPVVRLVWLGRVHYSELLALQEHWLRRLQADPRPGTLSGTKAGVLLVCEPAGPVYTGGLRGGLTPEETTRLRALGAEVRATGRGGLATFHGPGQLLCHPVLDLRLLGLRLRTHVAALEACAVRLCELRGLQGARARPPPYTGVWLGERKICAIGVRCGRHITSHGLALNCSTDLTWFEHIVPCGLVGTGVTSLSEALQRLVTVDEVMPSFLVAFKETFKCTLISEDSPS
modifications: full-length
Average logFC: −2.176 | M1-1 Log2 Median Normalized: −0.836 | M1-2 Log2 Median Normalized: −2.401 | M2-1 Log2 Median Normalized: −2.1745 | M2-2 Log2 Median Normalized: −2.621 | change: down

B10: Q9DBG7 (protein, UniProt Q9DBG7 1-636, looked up)
chain: MLDFFTIFSKGGLVLWCFQGVSDSCTGPVNALIRSVLLQERGGNNSFTHEALTLKYKLDNQFELVFVVGFQKILTLTYVDKLIDDVHRLFRDKYRTEIQQQSALSLLNGTFDFQNDFLRLLREAEESSKIRAPTTMKKFEDSEKAKKPVRSMIETRGEKTKEKAKNNKKRGAKKEGSDGTLATSKTAPAEKSGLSAGPENGELSKEELIRRKREEFIQKHGKGLDKSSKSTKSDTPKEKGKKAPRVWELGGCANKEVLDYSTPTTNGTPEAALSEDINLIRGTGPGGQLQDLDCSSSDDEGATQNTKPSATKGTLGGMFGMLKGLVGSKSLSREDMESVLDKMRDHLIAKNVAADIAVQLCESVANKLEGKVMGTFSTVTSTVKQALQESLVQILQPQRRVDMLRDIMDAQRRQRPYVVTFCGVNGVGKSTNLAKISFWLLENGFSVLIAACDTFRAGAVEQLRTHTRRLTALHPPEKHGGRTMVQLFEKGYGKDAAGIAMEAIAFARNQGFDVVLVDTAGRMQDNAPLMTALAKLITVNTPDLVLFVGEALVGNEAVDQLVKFNRALADHSMAQTPRLIDGIVLTKFDTIDDKVGAAISMTYITSKPIVFVGTGQTYCDLRSLNAKAVVAALMKA
modifications: full-length
Average logFC: 1.192 | M1-1 Log2 Median Normalized: 1.346 | M1-2 Log2 Median Normalized: 1.118 | M2-1 Log2 Median Normalized: 0.9025 | M2-2 Log2 Median Normalized: 1.401 | change: up

B11: Q9D9Z1 (protein, UniProt Q9D9Z1 1-312, looked up)
chain: MAAPEAEAQETAFRTTGPPTDSEPRPFPPSSRKFPFESAAADSNEDWAVAAEHYLKGSGENGGWEQPAPGVQPSHPATMASAKTVCDAQPHSMPSCGLPADTQTRATSKLPVKSKEADLLRHLHPGGPEPDVTKVTKSRRENGQVKAAETASRRNLRNSYKPFNKQKPEEELKDKNELLEAVNKQLHQKLTETQGELKDLTQKVELLEKFQDNCLALLESKGLNPGQETLASKQEPTTDHTDSMLLLETLKDELKVFNETAKKQMEELQALKVKLKLKEEESVQFLEQQTLCKDEASDFTIILEEMEQLLEM
modifications: full-length
Average logFC: −1.13 | M1-1 Log2 Median Normalized: −1.473 | M1-2 Log2 Median Normalized: −0.579 | M2-1 Log2 Median Normalized: −0.8635 | M2-2 Log2 Median Normalized: −1.605 | change: down
